Source: the Human Domainome abundance scans (Beltran et al. 2025)
± gives the uncertainty stated by the source.

B1: Intersectin-1, residues 909 to 971; numbered along this chain, Q15811 (parent)
chain: QGEKVEGLQAQALYPWRAKKDNHLNFNKNDVITVLEQQDMWWFGEVQGQKGWFPKSYVKLISG

Variants of: B1
Assay: abundance fitness (aPCA) (normalised: wild type 0, dead -1); higher = more abundant; growth selection in yeast, the domain comes from the species named
Conditions: Homo sapiens

Variant | abundance fitness
QGEKVEGLQAQALYPWRAKKDNHLNFNKNDVITVLEQQDMWWFGEVQGQKGWWPKSYVKLISG [F53W] | -0.798 ± 0.18
QGEKVEGLQAQALYPWRAKKDNHLNFNKNDVITVLEQQDMWWFGEVQGQKGWVPKSYVKLISG [F53V] | -0.677 ± 0.29
QGEKVEGLQAQALYPWRAKKDNHLNFNKNDVITVLEQQDMWWFGEVQGQKGWYPKSYVKLISG [F53Y] | -0.666 ± 0.42
QGEKVEGLQAQALYPWRAKKDNHLNFNKNDVITVLEQQDMWWFGEVQGQKGWSPKSYVKLISG [F53S] | -0.932 ± 0.18
QGEKVEGLQAQALYPWRAKKDNHLNFNKNDVITVLEQQDMWWFGEVQGQKGWFPQSYVKLISG [K55Q] | -0.005 ± 0.34
QGEKVEGLQAQALYPWRAKKDNHLNFNKNDVITVLEQQDMWWFGEVQGQKGWFPESYVKLISG [K55E] | -0.396 ± 0.34
QGEKVEGLQAQALYPWRAKKDNHLNFNKNDVITVLEQQDMWWFGEVQGQKGWFPLSYVKLISG [K55L] | -0.24 ± 0.36
QGEKVEGLQAQALYPWRAKKDNHLNFNKNDVITVLEQQDMWWFGEVQGQKGWFPNSYVKLISG [K55N] | -0.054 ± 0.26
QGEKVEGLQAQALYPWRAKKDNHLNFNKNDVITVLEQQDMWWFGEVQGQKGWFPRSYVKLISG [K55R] | 0.018 ± 0.3
QGEKVEGLQAQALYPWRAKKDNHLNFNKNDVITVLEQQDMWWFGEVQGQKGWFPCSYVKLISG [K55C] | -0.16 ± 0.21
QGEKVEGLQAQALYPWRAKKDNHLNFNKNDVITVLEQQDMWWFGEVQGQKGWFPGSYVKLISG [K55G] | -0.165 ± 0.24
QGEKVEGLQAQALYPWRAKKDNHLNFNKNDVITVLEQQDMWWFGEVQGQKGWFPKSYTKLISG [V58T] | -0.395 ± 0.15
QGEKVEGLQAQALYPWRAKKDNHLNFNKNDVITVLEQQDMWWFGEVQGQKGWFPKSYRKLISG [V58R] | -1.04 ± 0.34
QGEKVEGLQAQALYPWRAKKDNHLNFNKNDVITVLEQQDMWWFGEVQGQKGWFPKSYAKLISG [V58A] | -0.189 ± 0.088
QGEKVEGLQAQALYPWRAKKDNHLNFNKNDVITVLEQQDMWWFGEVQGQKGWFPKSYEKLISG [V58E] | -0.703 ± 0.17
QGEKVEGLQAQALYPWRAKKDNHLNFNKNDVITVLEQQDMWWFGEVQGQKGWFPKSYDKLISG [V58D] | -0.793 ± 0.47
QGEKVEGLQAQALYPWRAKKDNHLNFNKNDVITVLEQQDMWWFGEVQGQKGWFPKSYSKLISG [V58S] | -0.816 ± 0.23
QGEKVEGLQAQALYPWRAKKDNHLNFNKNDVITVLEQQDMWWFGEVQGQKGWFPKSYFKLISG [V58F] | -0.821 ± 0.37
QGEKVEGLQAQALYPWRAKKDNHLNFNKNDVITVLEQQDMWWFGEVQGQKGWFPKSYIKLISG [V58I] | -0.451 ± 0.17
QGEKVEGLQAQALYPWRAKKDNHLNFNKNDVITVLEQQDMWWFGEVQGQKGWFPKSYPKLISG [V58P] | -0.379 ± 0.2
QGEKVEGLQAQALYPWRAKKDNHLNFNKNDVITVLEQQDMWWFGEVQGQKGWFPKSYCKLISG [V58C] | -0.169 ± 0.14

Variant | abundance fitness
QGEKVEGLQAQALYPWRAKKDNHLNFNKNDVITVLEQQDMWWFGEVQGQKGWFPKSYLKLISG [V58L] | -0.812 ± 0.16
QGEKVEGLQAQALYPWRAKKDNHLNFNKNDVITVLEQQDMWWFGEVQGQKGWFPKSYGKLISG [V58G] | -0.881 ± 0.15
QGEKVEGLQAQALYPWRAKKDNHLNFNKNDVITVLEQQDMWWFGEVQGQKGWFPKSYWKLISG [V58W] | -0.87 ± 0.15
QGEKVEGLQAQALYPWRAKKDNHLNFNKNDVITVLEQQDMWWFGEVQGQKGWFPKSYVNLISG [K59N] | -0.114 ± 0.43
QGEKVEGLQAQALYPWRAKKDNHLNFNKNDVITVLEQQDMWWFGEVQGQKGWFPKSYVQLISG [K59Q] | -0.109 ± 0.17
QGEKVEGLQAQALYPWRAKKDNHLNFNKNDVITVLEQQDMWWFGEVQGQKGWFPKSYVHLISG [K59H] | -0.211 ± 0.33
QGEKVEGLQAQALYPWRAKKDNHLNFNKNDVITVLEQQDMWWFGEVQGQKGWFPKSYVALISG [K59A] | -0.165 ± 0.14
QGEKVEGLQAQALYPWRAKKDNHLNFNKNDVITVLEQQDMWWFGEVQGQKGWFPKSYVLLISG [K59L] | -0.331 ± 0.14
QGEKVEGLQAQALYPWRAKKDNHLNFNKNDVITVLEQQDMWWFGEVQGQKGWFPKSYVELISG [K59E] | -0.128 ± 0.14
QGEKVEGLQAQALYPWRAKKDNHLNFNKNDVITVLEQQDMWWFGEVQGQKGWFPKSYVDLISG [K59D] | -0.615 ± 0.28
QGEKVEGLQAQALYPWRAKKDNHLNFNKNDVITVLEQQDMWWFGEVQGQKGWFPKSYVGLISG [K59G] | -0.424 ± 0.11
QGEKVEGLQAQALYPWRAKKDNHLNFNKNDVITVLEQQDMWWFGEVQGQKGWFPKSYVCLISG [K59C] | -0.192 ± 0.2
QGEKVEGLQAQALYPWRAKKDNHLNFNKNDVITVLEQQDMWWFGEVQGQKGWFPKSYVSLISG [K59S] | -0.122 ± 0.13
QGEKVEGLQAQALYPWRAKKDNHLNFNKNDVITVLEQQDMWWFGEVQGQKGWFPKSYVRLISG [K59R] | -0.043 ± 0.09
QGEKVEGLQAQALYPWRAKKDNHLNFNKNDVITVLEQQDMWWFGEVQGQKGWFPKSYVILISG [K59I] | -0.227 ± 0.21
QGEKVEGLQAQALYPWRAKKDNHLNFNKNDVITVLEQQDMWWFGEVQGQKGWFPKSYVMLISG [K59M] | -0.108 ± 0.23
QGEKVEGLQAQALYPWRAKKDNHLNFNKNDVITVLEQQDMWWFGEVQGQKGWFFKSYVKLISG [P54F] | -0.8 ± 0.46
QGEKVEGLQAQALYPWRAKKDNHLNFNKNDVITVLEQQDMWWFGEVQGQKGWFEKSYVKLISG [P54E] | -0.474 ± 0.14
QGEKVEGLQAQALYPWRAKKDNHLNFNKNDVITVLEQQDMWWFGEVQGQKGWFWKSYVKLISG [P54W] | -0.437 ± 0.18
QGEKVEGLQAQALYPWRAKKDNHLNFNKNDVITVLEQQDMWWFGEVQGQKGWFMKSYVKLISG [P54M] | -0.25 ± 0.11
QGEKVEGLQAQALYPWRAKKDNHLNFNKNDVITVLEQQDMWWFGEVQGQKGWFSKSYVKLISG [P54S] | -0.88 ± 0.27
